From a protein production outcome set (Wang et al. 2014)

Assay: label from the status in PepcDB records

| Sequence | protein production |
| --- | --- |
| MGRTSKDKRDVYYRLAKENGWRARSAFKLLQLDKEFQLFQGVTRAVDLCAAPGSWSQVLSQKIGGQGSGHVVAVDLQAMAPLPGVVQIQGDITQLSTAKEIIQHFKGCPADLVVCDGAPDVTGLHDVDEYMQAQLLLAALNIATHVLKPGGCFVAKIFRGRDVTLLYSQLQVFFSSVLCAKPRSSRNSSIEAFAVCQGYDPPEGFIPDLSKPLLDHSYDPDFNQLDGPTRIIVPFVTCGDLSSYDSDRSYPLDLEGGSEYKYTPPTQPPISPPYQEACTLKRKGQLAKEIRPQDCPISRVDTFPQPLAAPQCHTLLAPEMEDNEMSCSP | failed |
| MMIMERHYTLKEASKILGVSIKTLQRWDKAGKIKCIRTLGGKRRVPESEIKRILGIKDKEQRKIIGYARVSFNAQKDDLERQIQLIKSYAEENGWDIQILKDIGSGLNEKRKNYKKLLKMVMNRKVEKVIIAYPDRLTRFGFETLKEFFKSYGTEIVIINKKHKTPQEELVEDLITIVSHFAGKLYGMHSHKYKKLTKTVKEIVREEDAKEKE | failed |
| MKHLVICIALLTVGACCFAQQKKVASHKAASGNPVFQGWYADPEGIIYDDTYWIFPTWSDLYENQTFFDCFSSKDLVNWTKHASVLDTTAVKWAKKAMWAPSVIRKNGKYYIFFGANDVHEGEIGGIGVAVSDRPEGPYKDLLGKPLINEIVNGAQPIDQFVYNDNGHYYMYYGGWGHCNVVQLNDDFTGLVPFEDGTVYKEVTPENYVEGPFMFKKDGKYYFMWSEGGWGGPDYSVAYAISDSPFGPFKRVAKILQQDPSVATSAGHHSLLHAPGTDDYYIVYHRRPLNDNARDHRVTCIDKMTFDKDGFINPVKMTFEGVPAQKIKKSKKK | failed |
| MESGKREQVELMFNNISPKYDLLNRVLSLGIDKIWRKQALNLLKQDKPAHILDVATGTADLAIEAATRLKPTSVVGIDIAEDMLQIGRGKIAKKNLDKIIRLEKGDSEKINFPDNTFDAVIVSFGVRNFEHLEIGLAEIHRVLKPAGSIMVLEFSKPQNAPFKQVYQFYFKNILPTVGKLISKDSAAYTYLPDSVNAFPDGKAFCSILEKTGFTIKHYKPYTFGVCTAYVGKLEHHHHHH | failed |
| KAPNLYMTDTTGTYRYLYDVQAKYTILFFWDSQCGHCQQETPKLYDWWLKNRAKGIQVYAANIERKDEEWLKFIRSKKIGGWLNVRDSKNHTDFKITYDIYATPVLYVLDKNKVIIAKRIGYENLDDFLVQYEKSLKTK | not failed |
| MVAVENVVFVFVAGLLTALATGLGAIPFFLVDEFSDRWNVLLWGLASGIMVAASLFGLVREGLAYGSPVLLVPGVLAGVGLVAVAHELLDDFDQSPKQFEQADFTKLLLILGILTVHSFPEGVAVGVSFAELGLEAATPESAVGIVGVSVPLLAVFMTVAISIHNIPEGTAIAIPLRSLGVSEWKMVWWAVFSSLPQPVGAVIAYYFVTLAKAFLPFGFGFAAGAMVYLVLTEFVPEALEYGDGLPGGGKRELLTGIAVGVLAMVPLAFV | failed |
| MKTLLSRSTAVPAKLLAATAITATLSAPAFSADANVESLVKAAQKEGSIYSVGMPDSWANWKDTWADLQSNYGLKHQDTDMSSAQEIAKFEAEKKNATADIGDVGFAFARVAVKKGVTQPYKPTTWNDIPDWAKDKDGHWALAYTGTISFISNNNLVKDAPKTWGDLLKGDYKVTVGDVGVAAQANNAVLAAAFANGGDESNLKPAIKFFAELAKQGRLSFTDPNIANLEKGEVEVAIMWDFNALNYRDKIDRERFTVTIPQDGSVISGYTTIINKYAKNPNAAKLAREYIFSDQGQINLAEGYARPIRTSITLPKSVQDKLIANDQYSNVHPVTDFSAWEKSARKLPRQWQESVLIHQQ | failed |
| MHKVLVPFDGSEHAMRALGYVIELSGDLNKPLEVHVLNVQASPIDYSLYLAPDMIDGVKAGLKNEGKRVLDDAIALLAAAGVPFQAHVDLGNVAEQVEAEVQRLGCDAVVMGTRGLGNFGGLLLGSVATRVIHEVSVPVTLIK | failed |
| MTDDRPPLPPFTRATAAQKVQAAEDAWNTRDPHKVSLAYSPDSVWRNRDTFVTGRAAIVELLTAKWAREREYALRKDLWAFDGNRIAVRFQYECQDADGQWWRSYGNELWEFDEHGLMTRREAGIHDVRIEERERRILGPRPEAERGRSFPVQ | failed |
| MIIVGFIGLVLVIILSAVLSLLRARSEALRQQQQFLAQLCPQLERQKTDRSPLNIPVVPQECEPLYHALNEMLAALPAGMGKDKLTGLINRVGLKRTLASLMPITQGTLVLIDIYRFRYVNDLLGFVFGDILLKQFAERLTSLSLKPKLIARLNGDEFFLYYEQSLSQEQLLHLRGRLQVPFNIKDTPVSVRLQIGCLQLAQHHADVSNMLRRLDLALKKARSTRIAIACYSENDDIRQLRELKIIDSLPNGLQRNHLYMVYQPKQDVSSEGCTQVEALIRWEHEELGVISPGEFIPLAECAGMIDLVSHWALEQVLQQQVKWRLAGISVCVALNLSTRDLDSETLPHELDARLKHYQLPPECLMIEITESTLMADLNKAVDTLVQIRRLGIHLAIDDFGTGHSSLAYLKHLPANEVKIDKVFLQDLKPNQPSEYILEASVNIAKKLGYEVTVEGVETQEVRDLLVKMGVDRIQGLCYAKPMRAVELEMHWHRLCPAPKMLSANLGSHP | failed |
| MTEEHVVLLDEQDKPSGTLEKYAAHTLNTPLHLAFSCWLFNEDGQLLVTRRSLSKKAWPGVWTNSVCGHPQQGETTEEAIIRRCRFELGVEITDLTPVYPHFSYRATDPNGIVENEVCPVFAARATSVLQVNSEEVMDYQWSEFKSVWKSLLATPWAFSPWMVMQASDEQARERLLNYCQR | not failed |
| MRRGDIGSCDRVDPSGKTLAGCDAGGDRGLGHGAFSSRAMWASDRTAARLLRPTLRQINTRLAGPPDPSISASMERAADMQTLLREIRNTPLLWMLVFVPIVLLAEAAAPHSHTLLFVLAVLAIVPLAALLSHATEAVAAKTGDAVGGLLNATLGNLTELIIAITALRAGQYMLVKASIAGAIVTNAVFMLGACLLLGGLRYHVQEYNRAGARLSSGLLLMATVALLAPSAVADLEHLPQGGGILNKLSVGISVLLIIAYALGLLFSLGTHKELFASADHGDDKEAHWPIGIAVGTLLVVTVLVALVSEIFVESVQKAAETFGMSPAFVGFIIVSLVGAAAEFAVAFGAARKDRLDMVVSIALGSASQIALFVAPALVLLSYVVGPTPMNLQFWPGAVTMVMIATVTSAFITASGRSAWFVGALMIFIYAVFALTLYVVPPAGEG | failed |
| MRVLVVGANGKVARYLLSELKNKGHEPVAMVRNEEQGPELRERGASDIVVANLEEDFSHAFASIDAVVFAAGSGPHTGADKTILIDLWGAIKTIQEAEKRGIKRFIMVSSVGTVDPDQGPMNMRHYLVAKRLADDELKRSSLDYTIVRPGPLSNEESTGKVTVSPHFSEITRSITRHDVAKVIAELVDQQHTIGKTFEVLNGDTPIAKVVEQL | not failed |
| MSEIEELVCIEASVTRKSTSNTVEIRESRRNKVTLGSSDSPAFPTPHLFLKNIVSFDEQSMYNLLYPRLQDPNLCSILSFKIAFEAKRVPGPLYISYDVTLTPQIFEEPDMETCGLCLLEEQHLFDMPNCAHVFHGDCIDKWLSTSNNCPLCGVEIMDDDE | failed |
| MAQFLRRFSSSPMANEDEFQSPVEPSQQQSQDCVSESYLIGFVIANIVGLKYYSGRINGREMVGLVREPLNVYDNNAIRVLNTRSEQVGHIERTVAAVLAPMIDSHTIVVEGIVPNTRSNSNRYRIPCQIHVFAKLEASSTVKSTISRGGLVLISESDTSFGLSEAVVVKEQMGNGDKRSVDKIFKLVDENVKLMGKLVAAEPPREVIKSELFAHQKEGLGWLLHREKSGELPPFWEEKDGEFLNTLTNYRSDKRPDPLRGGVFADDMGLGKTLTLLSLIAFDRYGNASTSTPTEEPLDGEGDKIEKKGKKRGRGKSSESVTRKKLKTDDVVGMNVSQKTTLIVCPPSVISAWITQLEEHTVPGILKVYMYHGGERTDDVNELMKYDIVLTTYGTLAVEESWEDSPVKKMEWLRIILDEAHTIKNANAQQSRVVCKLKASRRWAVTGTPIQNGSFDLYSLMAFLRFEPFSIKSYWQSLIQRPLGQGNKKGLSRLQVLMATISLRRTKEKSLIGLPPKTVETCYVELSPEERQLYDHMEGEAKGVVQNLINNGSLMRNYSTVLSIILRLRQLCDDMSLCPPELRSFTTSTSVEDVTDKPELLQKLVAALQDGEDFDCPICISPPTNIIITRCAHIFCRACILQTLQRSKPLCPLCRGSLTQSDLYNAPPPPPDSSNTDGEDAKSSTKSSKVSALLSLLMASRQENPNTKSVVFSQFRKMLLLLETPLKAAGFTILRLDGAMTVKKRTQVIGEFGNPELTGPVVLLASLKASGTGINLTAASRVYLFDPWWNPAVEEQAMDRIHRIGQKQEVKMIRMIARNSIEERVLELQQKKKNLANEAFKRRQKKDEREVNVEDVVALMSL | failed |
| MAADESYPSVKERAFFQGLPFDYAVVFDNALIDRLFSRLRQERALVEDGLLARPDHRPWRLGALITEADTLDRRLSEQIRCLSGQSLPVASIALVTATTEAREAVSLWASVTCPPNVVVTPDPRAWMAEADLDLVVVFAPGALAHPGLFAALGRALQRDGADFAVWNHLLVRRRAEAPGQDITYLRCPDPTRQPVALAHMEAAGPAWAATPRLFETIKGDLGKALIGMARHPLSIALLRGKPKVVRLNEFLGACRVDSLGTPPWPRQSALVEAYGAALEDETFRLEIDPAHPTQPIRLTPRRRAHSIDIVINFRDKPELTLAAMGSIYAQTTTARVSLFLIDNQSTPAARAAIDAEAARAPAGIAVRVLSYDRPFNHSAQTNLGAAAGNGEALVFMSNDCALVDPGALDEMAAWALAPGVGTVGVRLETAEGRLACSGICALYPDHDFHPIVAEGFDQLGAGLNRETFANTFACACLARAVFRQAGPLDAIGFPIGLNDVDYCLRLRERGLRHLYLGAFLARHQALGSRPASDDGAQSAFLRQTYGHLLFDKEYMLEYDFLRQFTAAKLRQDIRSQRDKTTTVLEHHHHHH | failed |
| MAKKNKRSQQKNKCLKPEKDPSTVKRLLEDPPRKKRYLQPLENPPTESYGDDEKMETEEEGEKYLGKNLPASAFIIVAAERHDSDSYSETELEKKICGSVVVAKMNDDKMVSTDTKKKYFQRILSDDDKIVLLQGMVDFQNDKGTISYDDMTGFIDTVKNIISFQANSRQFTTKIRRLKDKFVQKRNKGVDENSLANVEIYEI | failed |
| PKLTRVDIAHDDFEGKHISVDWGNMQDGLGGFQLGNRAPNIEHKGNWRRPNGKGRTLCIGSRDSGKYLRLYEKGRAEGDPNDNWQRAEVEFKSIDRVLPFDMLLAPSEFFIAAYPCFRDLAQHLQPERIETISKTAQINFQTAIENLKHQYGKYINIFKEVFEPEELINLISCSDPLAYPKRLDHVLITARRM | failed |
| MPSFRRSVAAVVTALPLIAGGCAHRPAVETASPEAVQWNLSDGAETTFYYLMLDQAARSDNTRDAIEAIENLIRLSPTARVYNDSGSFLLSRKEPDLARDILTRGVAAHPDDLGLTLLLAESYLDLDRNDEAIALLRAYNAKHPKDDEARQELAQLLVKTRRYEEADKLILSIGETSRTSLLRYYHARALMGLNRLTEATAQLRKAVKASPDFLEAWAELAYVYELRKNYVEAEKIYEQILALDEGNQDVWLRLVAINIKLNNPVKAYELARQGPETFGFMLTAATLFLDDRFFEQAEGLLLAVKDSPGAPEEVYFFLAVLAYEGQRDTDATLSWLLEVRPTNKYYDRALRLRSQLLYEKGDLEAALRTAREGRETFPEQRDFREMEAQLLVNMGRSEEALRVIDKAADRWPDDSGLLFMRALILDDRGAKDAAFAAMEEVIKASPNHAQALNYVGYTLAEQERDLTRAVSLLERANTLSPDNPFILDSLAWAYFKAGRIPEAWKAISRAIELNAPDPIIWEHYGDIATAMGQKNTARRAYRKALSMNPQNPDAIKAKLDKK | failed |
| MTRSKKFIIMITTVIVIIAFIFLALFAWKIYAERNYNNTNIREAAQFNPLIRETDYYVQVSDPLKKNGKNQVGAYTYMTDGFDKDGVGHTVTFNGMKKLKKGAYLKVSLFLGEAKSYNEISKDKVPHKPLKKLEMQQLEHHHHHH | not failed |
